The source of these data is patent publication US20090060908A1.

This test has as its target CD16 (FcγRIII) on human peripheral blood effector cells (human) (UniProt P08637). The experiment in a line: cell-based or functional assay.

Some results are limits rather than exact numbers.

Sequence of CD16 (FcγRIII) on human peripheral blood effector cells (human) (P08637 17-254): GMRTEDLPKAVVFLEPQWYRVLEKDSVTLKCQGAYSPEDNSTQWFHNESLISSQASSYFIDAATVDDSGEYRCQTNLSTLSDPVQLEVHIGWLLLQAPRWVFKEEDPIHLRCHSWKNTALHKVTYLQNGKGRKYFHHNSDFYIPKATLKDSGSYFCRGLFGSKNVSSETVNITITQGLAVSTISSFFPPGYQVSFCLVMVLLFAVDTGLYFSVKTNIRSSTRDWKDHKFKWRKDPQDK

In the case of anti-CD16 antibody 3G8, the % lysis in ADCC by 1 µg/ml 2A10 (fucosylated or defucosylated) with 5 µg/ml anti-CD16 antibody 3G8 is < 5% and the % lysis in ADCC by 1 µg/ml 7F12 (CHO-derived or chicken-derived) with 5 µg/ml anti-CD16 antibody 3G8 was 4%.
